Legend:
[1] = target: Ag43^UTI89 α-domain (α^43_UTI89), complete passenger domain with the autochaperone domain, from UPEC UTI89 (E. coli UTI89 (UPEC)); test: AUC; sedimentation velocity, 2.2 mg/mL, 25 mM HEPES, 150 mM NaCl, pH 7.0, 20 °C, 40,000 rpm, absorbance at 285 nm, c(s) analysis; monomer to dimer
[2] = target: Ag43^EDL933 α-domain (α^43_EDL933), complete passenger domain with the autochaperone domain, from EHEC O157:H7 EDL933 (E. coli O157:H7 EDL933 (EHEC)); test: as above
[3] = target: Ag43a α-domain (α^43a) from UPEC CFT073 (E. coli CFT073 (UPEC)); test: as above
[4] = target: Ag43b α-domain (α^43b) from UPEC CFT073 (E. coli CFT073 (UPEC)); test: AUC; sedimentation velocity; α^43b sample concentrated above 30 mg/ml prior to AUC analysis (Supplementary Fig. 7); monomer to dimer

For “Ag43^UTI89 α-domain (α^43_UTI89), complete passenger domain with the autochaperone domain, from UPEC UTI89 (domain or fragment)”, the stoichiometry N [1] was 2.
“Ag43^EDL933 α-domain (α^43_EDL933), complete passenger domain with the autochaperone domain, from EHEC O157:H7 EDL933 (domain or fragment)” showed a stoichiometry N [2] of 2.
Work on “Ag43a α-domain (α^43a) from UPEC CFT073 (domain or fragment)” yielded a stoichiometry N [3] of 2.
With “Ag43b α-domain (α^43b) from UPEC CFT073 (domain or fragment)” the stoichiometry N [4] was 2.
